Where a chain is given by its changes, count along the chain named.
B1: Ab16 (antibody, human IgG1, V domains shown)
VH: EVQLVQSGAEVKKPGATVKISCKVSGYSFITYWISWVQQAPGKGLEWMGAIDPSDSDARYSPSFQGRVTITADTSTDTAYMELSSLRSEDTAVYYCAKSDPGYSGYSLLYGFDSWGQGTLVTVSS
VL: DVVMTQSPLSLPVTLGQPASISCRSSQSLVQRNGNTYLSWFQQRPGQPPRLLIYQVSNRYSGVPDRFSGSGSGTDFTLKISRVEAEDVGVYYCGQGAHLPLTFGQGTKVEIK
B2: Ab49 (antibody, human IgG1, V domains shown)
VH: EVQLVQSGAEVKKPGESLKISCKGSGYSFITYWISWVRQMPGKGLEWMGAIDPSDSDARYSPSFQGQVTISADKSISTAYLQWSSLKASDTAMYYCAKSDPGYSGYSLLYGFDSWGQGTLVTVSS
VL: B1 VL with V2I, F41Y
B3: Ab59 (antibody, human IgG1, V domains shown)
VH: B2 VH with G24I
VL: B1 VL with V2I, F41Y
B4: Ab50 (antibody, human IgG1, V domains shown)
VH: B2 VH
VL: B1 VL with V2I
B5: Ab45 (antibody, human IgG1, V domains shown)
VH: B2 VH
VL: B1 VL with F41Y
B6: Ab53 (antibody, human IgG1, V domains shown)
VH: B2 VH with G24I
VL: B1 VL with P48S
B7: Ab47 (antibody, human IgG1, V domains shown)
VH: B2 VH
VL: B1 VL with V2I, P48S
B8: Ab42 (antibody, human IgG1, V domains shown)
VH: B2 VH
VL: B1 VL with V2I, S7T, L11S, F41Y, S72A
B9: Ab51 (antibody, human IgG1, V domains shown)
VH: B2 VH with G24I
VL: B1 VL with V2I, S7T, L11S, F41L, S72A
B10: Ab60 (antibody, human IgG1, V domains shown)
VH: B2 VH with G24I
VL: B1 VL with V2I
B11: Ab52 (antibody, human IgG1, V domains shown)
VH: B2 VH with G24I
VL: B1 VL with V2I, S7T, L11S, F41Y, S72A
B12: Ab46 (antibody, human IgG1, V domains shown)
VH: B2 VH
VL: B1 VL
B13: Ab56 (antibody, human IgG1, V domains shown)
VH: B2 VH with G24I
VL: B1 VL
B14: Ab57 (antibody, human IgG1, V domains shown)
VH: B2 VH with G24I
VL: B1 VL with V2I, P48S
B15: Ab58 (antibody, human IgG1, V domains shown)
VH: B2 VH with G24I
VL: B1 VL with V2I, F41Y, P48S
B16: Ab43 (antibody, human IgG1, V domains shown)
VH: B2 VH
VL: B1 VL with P48S
B17: Ab48 (antibody, human IgG1, V domains shown)
VH: B2 VH
VL: B1 VL with V2I, F41Y, P48S
B18: Ab44 Fab (Fab, V domains shown)
VH: B2 VH
VL: B1 VL with F41Y, P48S
B19: Ab6 Fab (Fab, V domains shown)
VH: B1 VH with S28T
VL: B1 VL
B20: Ab46 Fab (Fab, V domains shown)
VH: B2 VH
VL: B1 VL
B21: Ab36 Fab (Fab, V domains shown)
VH: B1 VH with S28T, T74K
VL: B1 VL
B22: Ab54 Fab (Fab, V domains shown)
VH: B2 VH with G24I
VL: B1 VL with F41Y, P48S
B23: Ab4 Fab (Fab, V domains shown)
VH: B1 VH with S28T
VL: B1 VL with F41Y, P48S
B24: Ab61 Fab (Fab, V domains shown)
VH: B1 VH with S28T
VL: B1 VL with G34A, F41Y, P48S
B25: Ab16 Fab (Fab, V domains shown)
VH: B1 VH
VL: B1 VL
B26: Ab10 Fab (Fab, V domains shown)
VH: B1 VH with S28T
VL: B1 VL with V2I
B27: Ab37 Fab (Fab, V domains shown)
VH: B1 VH with S28T, T74K
VL: B1 VL with V2I, P48S
B28: Ab47 Fab (Fab, V domains shown)
VH: B2 VH
VL: B1 VL with V2I, P48S

Target: recombinantly produced human-NGF (human, UniProt P01138 122-241, limits assumed)
Test: ELISA, human NGF coated, IgG titrated
Method: NGF binding ELISA assay: In human NGF binding ELISA, Corning 3366 high binding 96 well plates were coated with recombinantly produced human-NGF at 1 μg per ml, 50 μl/well in 1×PBS, and incubated overnight at 4° C. The plates were washed and blocked with 250 μl of 1×PBS/1% BSA at least 30 minutes at room temperature. 50 μl of culture supernatants, after 1:1 diluted by the PBS/BSA diluent, or the purified antibodies diluted serially from a certain concentration with the diluent, were added per well, and incubated at 37° C. for 2 hours. After washing, a secondary antibody, goat anti-human IgG Fc AP (Southern biotech) was applied at a dilution of 1:3000 in PBS/BSA. The plates were incubated for 1 hour at RT and washed. After adding the PNPP substrate, the ODs at 405 nm were read.
NGF binding ELISA assay: NGF binding ELISA assay was performed as described in Example 1.

Chain of recombinantly produced human-NGF (P01138 122-241 limits assumed): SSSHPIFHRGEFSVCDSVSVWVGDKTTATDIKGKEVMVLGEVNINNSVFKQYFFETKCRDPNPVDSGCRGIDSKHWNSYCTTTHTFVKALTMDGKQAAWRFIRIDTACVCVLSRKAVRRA

Row | EC50 [ng/mL] | Molecule
1 | 0.0173 | B1
2 | 0.00957 | B2
3 | 0.0122 | B3
4 | 0.00629 | B4
5 | 0.0166 | B5
6 | 0.0482 | B6
7 | 0.00942 | B7
8 | 0.0132 | B8
9 | 0.0221 | B9
10 | 0.00896 | B10
11 | 0.0206 | B11
12 | 0.0169 | B12
13 | 0.0145 | B13
14 | 0.011 | B14
15 | 0.0153 | B15
16 | 0.0221 | B16
17 | 0.0156 | B17

Target: T1, human NGF-Fc4 (IgG4-Fc) (human, UniProt P01138 122-241, limits assumed)
T1 construct: not shown: human IgG4 Fc
Test: competition ELISA: antibody pre-incubated with human NGF-Fc4, binding to coated TrkA-Fc
Method: TrkA inhibition ELISA assay: The TrkA inhibition ELISA assay was designed to identify the anti-NGF antibodies that have the capability of blocking NGF binding to its receptor TrkA. In this assay, human TrkA-Fc (IgG1-Fc, Sinobiological) was coated at 1 μg/ml in the 96-well plates and incubated overnight at 4° C. Antibodies, from cell culture supernatants or after purified, in different dilutions, were pre-incubated with human NGF-Fc4 (IgG4-Fc) at a final concentration of 70 ng/mL for 2 hours in 37° C. A total of 50 μl of the reaction mixtures were then transferred into the TrkA-Fc coated 96-well plates and incubated in room temperature for 2 hours. After washing, a secondary mouse anti-human IgG4-AP (Southern biotech) was added at a dilution of 1:1000 After one hour in room temperature, the plates were washed, and after adding PNPP substrate, ODs at 405 nm were read.
TrkA inhibition ELISA assay: The optimized anti-NGF antibodies Ab4, Ab6, Ab10, Ab16, Ab36, Ab37, Ab44, Ab45, Ab46, Ab47, Ab48, Ab49, Ab52, Ab54, Ab55, Ab56, Ab57, Ab58, Ab59, Ab60, Ab61 and the reference antibody Tanezumab (Pfizer), a humanized antibody from mouse hybridoma were further analyzed for their abilities to block NGF binding to its receptor TrkA. TrkA inhibition assay was performed as described in Example 1.

T1 sequence (P01138 122-241 limits assumed): as above

Row | IC50 [ng/mL] | Molecule
18 | 73.5 | B1
19 | 87.8 | B2
20 | 74.7 | B3
21 | 89.8 | B5
22 | 66.2 | B7
23 | 77.3 | B8
24 | 43.4 | B10
25 | 70.2 | B11
26 | 53.3 | B12
27 | 66.5 | B13
28 | 73.2 | B14
29 | 80 | B15
30 | 93.5 | B17

Target: human NGF (R&D system) (human, UniProt P01138 122-241)
Test: cell-based or functional assay

Chain of human NGF (R&D system) (P01138 122-241 limits assumed): as above

Row | TF1 Cell Proliferation Inhibition Assay IC50 [nM] | Molecule
31 | 0.3 | B1

Target: T2, human NGF-Fc protein (human, UniProt P01138 122-241, limits assumed)
T2 construct: not shown: human IgG1 Fc or IgG4 Fc
Test: BLI (Octet Red), human NGF-Fc captured on anti-human Fc sensors, Fab in solution
Method: FortéBio BioLayer Interferometry (BLI) technology was chosen as the method for affinity determination by using Octet Red system. NGF is a homodimer protein in its nature form. […] For the purpose of affinity measurement, monovalent Fab fragments of IgG were prepared using Fab preparation kit (Pierce).
After purification, the Fab concentration was determined by OD280 according to the extinction coefficient calculated based on its sequence. […] For each assay, an array of Fab concentrations from about 50 nM to less than 1 nM in kinetic buffer (PALL) were tested by NGF-Fc sensors with the association time of 300 seconds and dissociation time of 1200 seconds. The kinetic data were analyzed using program Data Analysis HT 10.0 according to the manual. All the tests were repeated at least twice in independent assays.

T2 sequence (P01138 122-241 limits assumed): as above

Row | Kd [nM] | koff [s⁻¹] | kon [M⁻¹ s⁻¹] | Molecule
32 | 0.169 | 6.14e-05 | 364000 | Tanezumab Fab
33 | 0.704 | 5.9e-05 | 83800 | B18
34 | 0.866 | 6.33e-05 | 73100 | B19
35 | 2.89 | 0.000107 | 37100 | B20
36 | 0.258 | 7.35e-05 | 285000 | B21
37 | 0.148 | 4.43e-05 | 300000 | B22
38 | 0.0746 | 2.99e-05 | 401000 | B23
39 | 0.139 | 5.13e-05 | 370000 | B24
40 | 1.37 | 7.11e-05 | 51700 | B25
41 |  | 7.48e-05 |  | B26
42 | 3.25 | 5.27e-05 | 16200 | B27
43 | 3.48 | 0.000142 | 40700 | B28

— patent US20230220057A1 (STAIDSON BEIJING BIOPHARMACEUTICALS, published 2023)
